Experiment: yeast display, Sf9 membrane polyspecificity reagent, FACS + sequencing; frameworks hold sequencing errors
How it was run: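 Synthetic nanobody libraries on Saccharomyces cerevisiae BJ5465 were galactose-induced for 36–48 hours, stained 1 hour at 4 °C with 10% biotinylated, detergent-solubilized Sf9 membrane reagent and enriched on streptavidin microbeads. FACS then separated cells into low and high (top ~1%) gates by anti-HA (expression) and streptavidin (reagent binding) fluorescence. Genes were colony-PCR amplified, MiSeq 2 × 250 sequenced and CDR-length filtered. A clone's polyreactivity label is that of its gate of origin.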

| Sequence | polyreactivity (PSR sort gate) |
| --- | --- |
| QDQLVESGGGLVQAGGSLRLSCAASGSTFSVYAMGWYRRAPGKERELVATIRGRGGSTSYADSVKGRFTISRDNAKNTVYLQMNSLKPEDTAVYYCAARVVRDWASKRIILALSNYVYWGQGTHVTVSS | high polyreactivity |
| QDQLVESGGGLVQAGGSLRLSCAASGSTFTTNVMGWYRQAPGKERELVAAISWSSGSTYYADSVKGRFTISRDNAKNTDYLQMNSLKPEDTAVYYCAARLVIFYPYSRYYYWGQGTQVTVSS | high polyreactivity |
| QDQLVESGGGLVQAGGSLRLSCAASGSTFTYNTKGWYRQAPGKERELVAAITTSGGNTYYADSVKGRFTISRDNAKNTVYLQMNSLKPVDTAVYYCAAGYSWAEGDYWGQGTQVTVSS | low polyreactivity |
| QDQLVESGGGLVQAGGSLRLSCAASGSTFVENAMGWYRQAPGKERELVAAISSSGDSTFYADSVKGRFTISRDNAKNTVYLQMNSLKPEDTAVYYCNTPLLKRTTRGRERNYWGQGTQVTVSS | low polyreactivity |
| QDQLVESGGGLVQAGGSLRLSCAASGSTFVKYAMGWYRQAPGKERELVAAITKGGGSTYYADSVKGRFTISRDNAKNTVYLQMNSLKPEDTAVYYCNTSPHYRYGMDYWGQGTQVTVSS | high polyreactivity |
| QDQLVESGGGLVQAGGSLRLSCAASGSTFWANAMGWYRQAPGKEWELDARITYSGGSTYYADSVKGRFTISRDYAKNTVYLQMNSLKPEDTAVYYCAAEHYLCYDYWGQGTQVTVSS | low polyreactivity |
| QDQLVESGGGLVQAGGSLRLSCAASGSTFYNYAMAWYRQAPGKEREFVAAISSGGGITYYADSVKGRFTISRDNAKNTVFLQMISLIPEDTAVYYCNAKMISGISTADSRSRIYDYWGHGTQVTVSS | high polyreactivity |
| QDQLVESGGGLVQAGGSLRLSCAASGSTLAGYAMGWYRLAPGKVRELVAAIDWTGGSTTYADSVKGRFTISRDNAKNTVYLQMNSLKPEDTAVYYCNVDLGVNGDYWGQGTQVTVSS | low polyreactivity |
| QDQLVESGGGLVQAGGSLRLSCAASGSTLDGNAMGWYRQAPGKERELVAGIDTGGSTYYADSVKGRFTISRDNAKNTVYLQMNSLKPEDTAVYYCAATDREDYDYWGQGTQVTVSS | low polyreactivity |
| QDQLVESGGGLVQAGGSLRLSCAASGSTLEYKAIGRYRQAPGQERELVAVINRSDGSTYYADSVKGRFTISRDNAKNTVYLQMNSLKPEDTEVYYCADDRHQVSGISTEDYWGQGTQVTVSS | low polyreactivity |
| QDQLVESGGGLVQAGGSLRLSCAASGSTLFYAMGWYRQAPGKERELVAAISWSGGSTRYADSVKGRFTISRDNAKNTVYLQMNSLKPEDTAVYYCNRDPDTWGYQPDWYYGAYDYWGQGTQVTVSS | low polyreactivity |
| QDQLVESGGGLVQAGGSLRLSCAASGSTLTRNAMGWYRQAPGKERELVAAITSGGRTKYADSVKGRFTISRDNAKNTVYLQMNSLKPEDTAVYYCAKGGPPGQRGYDYWGQGTQVTVSS | high polyreactivity |
| QDQLVESGGGLVQAGGSLRLSCAASGSTRIYAMGWYRRAPRKEMELVAAISWTGGRTYYADSVKGRFTISRDNAKIIVYLQMNSLKPEYTAVYYCAAQYFTFYWKLDYWGQGTQVTVSS | high polyreactivity |
| QDQLVESGGGLVQAGGSLRLSCAASGSTSRTYAMGWYRQAPGKERELVAAINSGGTTYYADSVKGRFTISRDNAKNTVYLQMNSLKPEDTAVYYCARRDFWWSLRIFGYWGQGTQVTVSS | high polyreactivity |
| QDQLVESGGGLVQAGGSLRLSCAASGSTVSYYTMGWYRQAPGKERELVAAINGSGGSTYYADSVKGRFTISRDNAKNNVYLQMNSMKPEDTAVYYCAADIKRVLDIPMYYWGQGTQVTVSS | low polyreactivity |
| QDQLVESGGGLVQAGGSLRLSCAASGYIFGIYAMGWYRQAPGKERELVAAISSDSTYYADSVKGRFTISRDNAKNTVYLQMNRQKPEDTAVYYCAAYWFNQDYEFEYWGHGTQVTVSS | high polyreactivity |

From the nanobody polyreactivity screen of Harvey et al. (2022)
